Experimental data from patent US20120225028A1, “COMPOSITIONS AND METHODS FOR MOBILIZATION OF STEM CELLS” (priority 2011, published 2012).

Key:
peripheral blood WBC [1] = test: Peripheral blood WBC counts of treated mice; assay type: in vivo; settings: 7 day treatment
Experimental: G-CSF mobilization increases the circulating WBC count in mice and humans with typical counts approximately 25,000 to 30,000 WBC/μl. The effects of the combination of SP+G-CSF on peripheral WBC in treated mice was evaluated.
The different effects on peripheral WBC count of mobilization agents used were established.

GM-CFC = test: Hematopoietic progenitor colony forming assay of WBC from treated mice; assay type: in vivo; settings: for Number of GM-CFC (n = 3): median colony number per 200,000 cells plated, methylcellulose culture, 10 days of incubation, triplicate cultures; for Type of colonies formed in cultures of WBC: methylcellulose colony assay
Experimental: WBC from treated mice were also plated in standard hematopoietic progenitor colony forming assays. Colony formation from cultures of 200,000 cells per 35 mm petri dishes were scored at 10 days of culture.
The median colony number pre 200,000 cells plated is presented from 3 triplicate cultures containing 1 ml of methycellulose plus rmIL-3, rmGM-CSF, rrSCF and rhG-CSF.

mesenchymal stem cells = test: Mouse model of mobilization: MSC formation in culture of peripheral blood WBC from treated mice; assay type: in vivo; settings: for Stromal cell formation in cultures of WBC: SP 10 μg/kg or rhG-CSF 250 ug/kg i.p. for 4 days, PB harvested on fifth day; for Stromal cell formation in cultures of WBC / MSC / adherent stromal cell formation after 5 to 7 days of culture: 35 mm wells; for MSC / adherent stromal cell formation after 5 to 7 days of culture / MSC foci after 10 days of culture: SP 10 μg/kg, i.p. 4 days; for MSC / adherent stromal cell formation after 5 to 7 days of culture: rhG-CSF 250 μg/kg or both; for MSC foci after 10 days of culture: rhG-CSF 250 μg/kg
Experimental: To evaluate the potential of different mobilization agents, a mouse model of mobilization was used. Groups of mice (n=5) were treated with cytokines or mobilization agents and peripheral blood harvested into heparin containing tubes. The blood was treated with ammonium chloride to lyse the red cells and the white cells plated in 6 well plates treated with gelatin and evaluated for MSC formation at various time points.
Mice were injected intraperitoneally with 250 ug/kg of rhG-CSF (Amgen Inc, Thousand Oaks, Calif.) or normal saline for 5 days and PB harvested on the fifth day. The white cells were plated in media from Stem Cell Technologies (Vancouver, Canada) for culture of mesenchymal stem cells with murine supplements.
Mice (groups of 5 mice per treatment arm) were injected intraperitoneally with 10 μg/kg of Substance P (Sigma-Aldrich, St Louis, Mo.) or with 250 ug/kg of rhG-CSF for 4 days and PB harvested on the fifth day. The white cells were plated in media from Stem Cell Technologies (Vancouver, Canada) for culture of mesenchymal stem cells with murine supplements.
Mice (groups of 5 mice per treatment arm) were injected intraperitoneally with 10 μg/kg of Substance P (Sigma-Aldrich, St Louis, Mo.), with 250 μg/kg of rhG-CSF, or the combination of 10 μg/kg SP plus 250 μg/kg rhG-CSF for 4 days and PB harvested on the fifth day. The white cells were plated in media from Stem Cell Technologies (Vancouver, Canada) for culture of mesenchymal stem cells with murine supplements.

MSCs or MSC precursors = test: Culture of rhG-CSF mobilized peripheral blood from normal donors under MSC conditions; assay type: in vivo; settings: normal human donors mobilized with G-CSF, standard MSC culture
Experimental: Normal unmobilized PB and PB from normal donors mobilized with rhG-CSF was obtained and the potential of the MNCs to generate MSCs was evaluated. When placed in standard culture there was development of adherent cells that appeared like adipocyte cells and endothelial cells (FIG. 1).

peripheral blood WBC [2] = settings: mice and humans, general statement; cited from earlier work

Row | Molecule | Effect on peripheral blood WBC levels (peripheral blood WBC [1]) | Number of GM-CFC (n = 3) (GM-CFC) | Type of colonies formed in cultures of WBC (GM-CFC) | Stromal cell formation in cultures of WBC (mesenchymal stem cells) | MSC / adherent stromal cell formation after 5 to 7 days of culture (mesenchymal stem cells) | MSC foci after 10 days of culture (mesenchymal stem cells) | Blast like cells on cytospin slides of WBC (mesenchymal stem cells; WBC from SP treated mice) | MSC formation from mobilized peripheral blood cells (MSCs or MSC precursors) | MSC formation from mobilized peripheral blood cells (MSCs or MSC precursors; listed as G-CSF) | Adherent cells in cultures of WBC (mesenchymal stem cells; 250 ug/kg intraperitoneally for 5 days, PB harvested on the fifth day) | Typical circulating WBC count after mobilization (peripheral blood WBC [2])
1 | Substance P (RPKPQQFFGLM; printed: Arg Pro Lys Pro Gln Gln Phe Phe Gly Leu Met) [SP, Sigma-Aldrich, reference compound] | no significant effect | 5 | colonies containing both hematopoietic and MSC cells | generated adherent stromal cells after 5 to 7 days with several foci | a few adherent stromal cells | several MSC foci | increase in blast like cells | – | – | – | –
2 | rhG-CSF: recombinant human granulocyte colony-stimulating factor (Amgen) (protein, UniProt P09919 31-207, looked up) Granulocyte …: TPLGPASSLPQSFLLKCLEQVRKIQGDGAALQEKLVSECATYKLCHPEELVLLGHSLGIPWAPLSSCPSQALQLAGCLSQLHSGLFLYQGLLQALEGISPELGPTLDTLQLDVADFATTIWQQMEELGMAPALQPTQGAMPAFASAFQRRAGGVLVASHLQSFLEVSYRVLRHLAQP | – | 26 | Typical hematopoietic colonies | no stromal cell formation evident | one area with MSC cells | one foci | – | no evidence of MSC formation | fail to generate mesenchymal stem cells | failed to proliferate and resembled endothelial cells not MSCs | 25,000 to 30,000 WBC/μl
